We go through 23 sequences from the supplement of paper PMC11780869.

The subject of the data set is Bacillus subtilis. The data set is described as follows: cleaved RNA product abundance (RNA/gDNA barcode ratio) relative to median wild-type variant (ratio to wild type); higher = more accumulation of the downstream cleavage product. The settings on record: cleavage site: cggR-gapA (positions -7 to +36 mutated). The essentials:
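Truncated aprE or tetM reporter mRNAs with barcoded RNase Y cleavage-site windows, mutagenized from oligos at a 9% error rate, sat in the B. subtilis chromosome. Cells grew in LB at 37°C from OD600 0.0003 to 0.3. Gel-selected cleaved RNA was reverse transcribed and its barcodes sequenced with those from genomic DNA, collapsing by UMI. Cleaved product abundance equals the RNA:gDNA barcode ratio per construct over the median construct with the unmutated site.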

The mark [1] stands for this setting: experiment (reporter, strain, medium): exp 2b: truncated aprE reporter, strain BJT200.
Where [2] appears, read: experiment (reporter, strain, medium): exp 4a: truncated aprE reporter, strain BJT201 with 2% xylose (RNase J1 expressed).

For the sequence “ACAGACGAAGGAGCCGCAAAGAAGTTATCAAGGGATGAATAATCCCTCAAAATAAATATCTCTCACTTATTTAAA”, the “cleaved RNA product abundance” value by setting is: under setting [1], 0.2; under setting [2], 0.289.

With “ACAGACGAAGGAGCCGCAAAGAAGTTATCAAGGGATGAATAATCCCTCAATATAAATATCTCTCACTTATTTAAA”, the “cleaved RNA product abundance” value by setting is: under setting [1], 0.27; under setting [2], 0.385; (experiment (reporter, strain, medium): exp 6: tetM reporter, strain 168) 0.34.

As to “ACAGACGAAGGAGCCGCAAAGAAGTTATCAAGGGATGAATAATCCCTCAATATAAATGTCTCTCACTTATTTAAA”, the “cleaved RNA product abundance” value is, setting by setting: under setting [1], 0.192; under setting [2], 0.206.

Consider “ACAGACGAAGGAGCCGCAAAGAAGTTATCAAGGGATGAATAATCCCTCAATATAATTATCTCTCACTTATTTAAA”, for which the “cleaved RNA product abundance” value under setting [2] stood at 0.218.

As for “ACAGACGAAGGAGCCGCAAAGAAGTTATCAAGGGATGAATAATCCCTCACTATAAATATCTCTCACTTATTTAAA”, the “cleaved RNA product abundance” value under setting [2] was found to be 0.306.

For the sequence “ACAGACGAAGGAGCCGCAAAGAAGTTATCAAGGGATGAATAATCCCTCATTATAAATATCTCTCACTTATTTAAA”, the “cleaved RNA product abundance” value under setting [1] worked out at 0.216.

For the sequence “ACAGACGAAGGAGCCGCAAAGAAGTTATCAAGGGATGAATAATCGCTCAATATAAATATCTCTCACTTATTTAAA”, the “cleaved RNA product abundance” value under setting [2] came to 0.0908.

As to “ACAGACGAAGGAGCCGCAAAGAAGTTATCAAGGGATGAATAATGCCTCAATATAAATATCTCTCACTTATTTAAA”, the “cleaved RNA product abundance” value under setting [2] came out at 0.19.

As for “ACAGACGAAGGAGCCGCAAAGAAGTTATCAAGGGATGAATATTCCCTCAATATAAATATCTCTCACTTATTTAAA”, the “cleaved RNA product abundance” value under setting [2] was determined as 0.27.

On to “ACAGACGAAGGAGCCGCAAAGAAGTTATCAAGGGATGAATTATCCCTCAATATAAATATCTCTCACTTATTTAAA”, for which, under setting [2], the “cleaved RNA product abundance” value is 0.25.

“ACAGACGAAGGAGCCGCAAAGAAGTTATCAAGGGATTAATAATCCCTCAATATAAATATCTCTCACTTATTTAAA”: under setting [2], the “cleaved RNA product abundance” value worked out at 0.301.

Regarding “ACAGACGAAGGAGCCGCAAAGAAGTTATCAAGGGATTAATAATCCCTCATTATAAATATCTCTCACTTATTTAAA”, the “cleaved RNA product abundance” value under setting [2] amounted to 0.314.

Consider “ACAGACGAAGGAGCCGCAAAGAAGTTATCAAGGTATGAATAATCCCTCAATATAAATATCTCTCACTTATTTAAA”, for which the “cleaved RNA product abundance” value under setting [2] was determined as 0.169.

Consider “ACAGACGAAGGAGCCGCAAAGAAGTTATCAAGTGATGAATAATCCCTCAATATAAATATCTCTCACTTATTTAAA”, for which, under setting [2], the “cleaved RNA product abundance” value came out at 0.0945.

As for “ACAGACGAAGGAGCCGCAAAGAAGTTATCAATGGATGAATAATCCCTCAATATAAATATCTCTCACTTATTTAAA”, the “cleaved RNA product abundance” value under setting [2] came to 0.146.

As to “ACAGACGAAGGAGCCGCAAAGAAGTTATCAGGGGATGAATAATCCCTCAATATAAATATCTCTCACTTATTTAAA”, under setting [1], the “cleaved RNA product abundance” value was 0.323.

As for “ACAGACGAAGGAGCCGCAAAGAAGTTATCATGGGATGAATAATCCCTCAATATAAATATCTCTCACTTATTTAAA”, under setting [2], the “cleaved RNA product abundance” value amounted to 0.262.

For “ACAGACGAAGGAGCCGCAAAGAAGTTATCTAGGGATGAATAATCCCTCAATATAAATATCTCTCACTTATTTAAA”, the “cleaved RNA product abundance” value under setting [2] was determined as 0.316.

In the case of “ACAGACGAAGGAGCCGCAAAGAAGTTATGAAAGGATGAATAATCCCTCAATATAAATATCTCTCACTTATTTAAA”, the “cleaved RNA product abundance” value under setting [2] was determined as 0.178.

As for “ACAGACGAAGGAGCCGCAAAGAAGTTATGAACGGATGAATAATCCCTCAATATAAATATCTCTCACTTATTTAAA”, the “cleaved RNA product abundance” value under setting [1] came to 0.177 and the “cleaved RNA product abundance” value under setting [2] stood at 0.242.

On to “ACAGACGAAGGAGCCGCAAAGAAGTTATGAAGAGATGAATAATCCCTCAATATAAATATCTCTCACTTATTTAAA”, for which the “cleaved RNA product abundance” value under setting [2] was 0.0998.

Turning to “ACAGACGAAGGAGCCGCAAAGAAGTTATGAAGCGATGAATAATCCCTCAATATAAATATCTCTCACTTATTTAAA”, the “cleaved RNA product abundance” value under setting [2] was 0.0897.

For “ACAGACGAAGGAGCCGCAAAGAAGTTATGAAGGAATGAATAATCCCTCAATATAAATATCTCTCACTTATTTAAA”, the “cleaved RNA product abundance” value by setting is: under setting [1], 0.139; under setting [2], 0.0818.
